Reference: paper PMC8510540 (2021)

Key:
[1] = biological target: HIV-1_(YU-2) gp140 trimer (HIV-1 YU-2); assay: BLI; kinetic
[2] = biological target: HIV-1_(YU-2) gp140 trimer (HIV-1 YU-2); assay: BLI; equilibrium

| Binder | Kd [1] [nM] | Kd [2] [nM] |
| --- | --- | --- |
| IgG1 b12 EFTAE Fc variant (antibody, V domains shown) VH: QVQLVQSGAEVKKPGASVKVSCQASGYRFSNFVIHWVRQAPGQRFEWMGWINPYNGNKEFSAKFQDRVTFTADTSANTAYMELRSLRSADTAVYYCARVGPYSWDDSPQDNYYMDVWGKGTTVIVSS VL: EIVLTQSPGTLSLSPGERATFSCRSSHSIRSRRVAWYQHKPGQAPRLVIHGVSNRASGISDRFSGSGSGTDFTLTITRVEPEDFALYYCQVYGASSYTFGQGTKLERK | 2.78 | 1.93 |
| IgG1 b12 LALA Fc variant (antibody, V domains shown) VH: QVQLVQSGAEVKKPGASVKVSCQASGYRFSNFVIHWVRQAPGQRFEWMGWINPYNGNKEFSAKFQDRVTFTADTSANTAYMELRSLRSADTAVYYCARVGPYSWDDSPQDNYYMDVWGKGTTVIVSS VL: EIVLTQSPGTLSLSPGERATFSCRSSHSIRSRRVAWYQHKPGQAPRLVIHGVSNRASGISDRFSGSGSGTDFTLTITRVEPEDFALYYCQVYGASSYTFGQGTKLERK | 2.06 | 2.04 |
| IgG1 b12 KA Fc variant (antibody, V domains shown) VH: QVQLVQSGAEVKKPGASVKVSCQASGYRFSNFVIHWVRQAPGQRFEWMGWINPYNGNKEFSAKFQDRVTFTADTSANTAYMELRSLRSADTAVYYCARVGPYSWDDSPQDNYYMDVWGKGTTVIVSS VL: EIVLTQSPGTLSLSPGERATFSCRSSHSIRSRRVAWYQHKPGQAPRLVIHGVSNRASGISDRFSGSGSGTDFTLTITRVEPEDFALYYCQVYGASSYTFGQGTKLERK | 2.56 | 2.95 |
| IgG1 b12 EG Fc variant (antibody, V domains shown) VH: QVQLVQSGAEVKKPGASVKVSCQASGYRFSNFVIHWVRQAPGQRFEWMGWINPYNGNKEFSAKFQDRVTFTADTSANTAYMELRSLRSADTAVYYCARVGPYSWDDSPQDNYYMDVWGKGTTVIVSS VL: EIVLTQSPGTLSLSPGERATFSCRSSHSIRSRRVAWYQHKPGQAPRLVIHGVSNRASGISDRFSGSGSGTDFTLTITRVEPEDFALYYCQVYGASSYTFGQGTKLERK | 2.26 | 0.9 |
| IgG1 b12 (unmodified Fc) (antibody, V domains shown) VH: QVQLVQSGAEVKKPGASVKVSCQASGYRFSNFVIHWVRQAPGQRFEWMGWINPYNGNKEFSAKFQDRVTFTADTSANTAYMELRSLRSADTAVYYCARVGPYSWDDSPQDNYYMDVWGKGTTVIVSS VL: EIVLTQSPGTLSLSPGERATFSCRSSHSIRSRRVAWYQHKPGQAPRLVIHGVSNRASGISDRFSGSGSGTDFTLTITRVEPEDFALYYCQVYGASSYTFGQGTKLERK | 1.72 | 2.18 |
